No end group written: not given here.
Experiments:
EphB1 = experiment: EphB receptor specificity (% binding), Table 1; conditions: binding to EphB1
EphB2 = EphB2 (Homo sapiens, UniProt P29323); experiment: EphB receptor specificity (% binding), Table 1; conditions: binding to EphB2
EphB3 = EphB3 (Homo sapiens, UniProt P54753); experiment: EphB receptor specificity (% binding), Table 1; conditions: binding to EphB3
EphB4 [1] = target: T1, EphB4 (Mus musculus, UniProt P54761); experiment: EphB receptor specificity (% binding), Table 1; conditions: binding to EphB4
T1 sequence (P54761 16-987): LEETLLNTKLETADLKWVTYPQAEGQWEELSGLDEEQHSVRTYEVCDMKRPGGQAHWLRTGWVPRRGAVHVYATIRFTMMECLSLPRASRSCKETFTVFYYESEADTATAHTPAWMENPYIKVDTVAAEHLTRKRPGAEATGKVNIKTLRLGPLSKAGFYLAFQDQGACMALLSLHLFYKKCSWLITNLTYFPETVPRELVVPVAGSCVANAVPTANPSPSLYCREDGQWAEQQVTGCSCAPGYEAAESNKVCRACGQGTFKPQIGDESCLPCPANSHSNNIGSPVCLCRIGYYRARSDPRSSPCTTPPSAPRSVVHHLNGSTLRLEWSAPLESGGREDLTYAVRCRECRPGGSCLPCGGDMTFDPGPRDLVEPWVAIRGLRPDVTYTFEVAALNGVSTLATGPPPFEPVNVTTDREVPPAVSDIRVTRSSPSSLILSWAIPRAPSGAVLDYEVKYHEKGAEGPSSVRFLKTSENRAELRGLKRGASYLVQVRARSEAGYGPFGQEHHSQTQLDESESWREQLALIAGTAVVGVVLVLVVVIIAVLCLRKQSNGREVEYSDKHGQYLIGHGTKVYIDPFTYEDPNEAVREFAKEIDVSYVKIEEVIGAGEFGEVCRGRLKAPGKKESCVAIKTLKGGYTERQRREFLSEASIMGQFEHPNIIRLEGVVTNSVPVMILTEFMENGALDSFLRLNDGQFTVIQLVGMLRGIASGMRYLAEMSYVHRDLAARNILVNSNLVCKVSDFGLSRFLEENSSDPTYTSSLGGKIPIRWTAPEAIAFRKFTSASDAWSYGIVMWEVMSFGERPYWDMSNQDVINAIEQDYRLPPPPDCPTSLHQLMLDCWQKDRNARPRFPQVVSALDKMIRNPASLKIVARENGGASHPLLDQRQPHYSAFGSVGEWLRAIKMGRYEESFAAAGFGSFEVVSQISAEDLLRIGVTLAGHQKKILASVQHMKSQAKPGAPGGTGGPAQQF

EphB6 = target: T2, EphB6 (Homo sapiens, UniProt O15197); experiment: EphB receptor specificity (% binding), Table 1; conditions: binding to EphB6
T2 sequence (O15197 32-1021): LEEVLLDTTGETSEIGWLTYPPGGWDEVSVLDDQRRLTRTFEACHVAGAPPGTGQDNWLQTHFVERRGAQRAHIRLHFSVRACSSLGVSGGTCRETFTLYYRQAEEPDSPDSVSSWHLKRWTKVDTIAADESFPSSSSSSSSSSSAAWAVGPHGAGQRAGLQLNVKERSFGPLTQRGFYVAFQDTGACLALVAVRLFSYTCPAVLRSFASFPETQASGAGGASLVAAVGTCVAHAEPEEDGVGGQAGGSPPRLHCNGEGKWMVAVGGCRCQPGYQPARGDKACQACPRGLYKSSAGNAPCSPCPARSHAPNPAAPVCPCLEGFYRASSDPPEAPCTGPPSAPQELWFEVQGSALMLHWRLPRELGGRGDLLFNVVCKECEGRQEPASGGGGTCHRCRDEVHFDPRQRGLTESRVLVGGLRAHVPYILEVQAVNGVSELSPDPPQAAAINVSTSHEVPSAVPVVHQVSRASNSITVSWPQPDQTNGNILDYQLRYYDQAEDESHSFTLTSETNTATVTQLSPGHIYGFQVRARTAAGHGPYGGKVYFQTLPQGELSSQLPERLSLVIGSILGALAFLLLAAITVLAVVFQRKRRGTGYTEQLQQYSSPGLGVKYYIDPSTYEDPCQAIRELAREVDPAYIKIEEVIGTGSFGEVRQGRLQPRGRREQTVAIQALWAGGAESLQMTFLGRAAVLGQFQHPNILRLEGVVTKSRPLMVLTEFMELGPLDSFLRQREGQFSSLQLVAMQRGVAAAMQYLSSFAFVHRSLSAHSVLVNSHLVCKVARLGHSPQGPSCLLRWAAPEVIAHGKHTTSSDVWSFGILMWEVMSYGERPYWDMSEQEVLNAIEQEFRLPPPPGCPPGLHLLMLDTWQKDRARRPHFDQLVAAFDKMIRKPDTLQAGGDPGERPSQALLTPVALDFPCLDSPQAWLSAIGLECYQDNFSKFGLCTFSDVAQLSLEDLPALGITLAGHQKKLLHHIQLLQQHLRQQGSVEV

murine EphB4 ectodomain = target: T3, murine EphB4 ectodomain (Mus musculus, UniProt P54761); experiment: Inhibition of murine ephrin-B2 AP binding to immobilized murine EphB4 ectodomain (Example 4)
T3 construct: Wells coated with the murine EphB4 ectodomain
T3 sequence (P54761 16-539 limits assumed): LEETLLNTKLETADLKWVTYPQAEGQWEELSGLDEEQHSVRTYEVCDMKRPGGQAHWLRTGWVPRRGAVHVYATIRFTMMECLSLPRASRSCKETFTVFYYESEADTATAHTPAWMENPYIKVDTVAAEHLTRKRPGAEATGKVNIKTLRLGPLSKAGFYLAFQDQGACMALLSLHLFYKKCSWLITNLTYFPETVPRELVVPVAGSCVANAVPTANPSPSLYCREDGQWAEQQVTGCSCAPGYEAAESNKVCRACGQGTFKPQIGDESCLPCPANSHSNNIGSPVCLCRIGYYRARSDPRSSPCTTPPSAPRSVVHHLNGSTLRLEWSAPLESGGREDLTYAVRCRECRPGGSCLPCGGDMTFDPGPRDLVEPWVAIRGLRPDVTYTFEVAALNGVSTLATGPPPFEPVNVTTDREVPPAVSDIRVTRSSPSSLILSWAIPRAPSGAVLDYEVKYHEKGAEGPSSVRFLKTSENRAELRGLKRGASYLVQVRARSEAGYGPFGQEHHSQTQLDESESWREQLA
Procedure: Wells coated with the murine EphB4 ectodomain were incubated with murine ephrin-B2 AP and different concentrations of the indicated peptides. Ephrin-B2 AP binding to the immobilized EphB4 receptor ectodomain was measured in the presence of various concentrations of the peptides and detected by measuring alkaline phosphatase activity. Ephrin-B2 AP binding in the presence of peptide was normalized to binding in the absence of peptide.

murine EphB4 = target: T4, murine EphB4 (Mus musculus, UniProt P54761); experiment: TNYL-RAW Fc immobilized on protein A ELISA plates, binding of murine EphB4 AP; conditions: purified from HEK293 cell culture supernatants (FIG. 5B)
T4 construct: purchased R&D Systems 446-B4-200
T4 sequence (P54761 16-539 limits assumed): T3 sequence (P54761 16-539 limits assumed)

EphB4 [2] = target: T5, EphB4 (Homo sapiens, UniProt P54760); experiment: EphB4 tyrosine phosphorylation in MDA-MB-231 breast cancer cells (immunoprecipitation, PTyr immunoblot); assay type: cell-based; conditions: 2 μg/ml, clustered with anti-Fc antibodies, 20 minutes, MDA-MB-231 cells (FIG. 5E)
T5 construct: endogenous in cells; host or cells: MDA-MB-231 breast cancer cells
T5 sequence (P54760 16-987): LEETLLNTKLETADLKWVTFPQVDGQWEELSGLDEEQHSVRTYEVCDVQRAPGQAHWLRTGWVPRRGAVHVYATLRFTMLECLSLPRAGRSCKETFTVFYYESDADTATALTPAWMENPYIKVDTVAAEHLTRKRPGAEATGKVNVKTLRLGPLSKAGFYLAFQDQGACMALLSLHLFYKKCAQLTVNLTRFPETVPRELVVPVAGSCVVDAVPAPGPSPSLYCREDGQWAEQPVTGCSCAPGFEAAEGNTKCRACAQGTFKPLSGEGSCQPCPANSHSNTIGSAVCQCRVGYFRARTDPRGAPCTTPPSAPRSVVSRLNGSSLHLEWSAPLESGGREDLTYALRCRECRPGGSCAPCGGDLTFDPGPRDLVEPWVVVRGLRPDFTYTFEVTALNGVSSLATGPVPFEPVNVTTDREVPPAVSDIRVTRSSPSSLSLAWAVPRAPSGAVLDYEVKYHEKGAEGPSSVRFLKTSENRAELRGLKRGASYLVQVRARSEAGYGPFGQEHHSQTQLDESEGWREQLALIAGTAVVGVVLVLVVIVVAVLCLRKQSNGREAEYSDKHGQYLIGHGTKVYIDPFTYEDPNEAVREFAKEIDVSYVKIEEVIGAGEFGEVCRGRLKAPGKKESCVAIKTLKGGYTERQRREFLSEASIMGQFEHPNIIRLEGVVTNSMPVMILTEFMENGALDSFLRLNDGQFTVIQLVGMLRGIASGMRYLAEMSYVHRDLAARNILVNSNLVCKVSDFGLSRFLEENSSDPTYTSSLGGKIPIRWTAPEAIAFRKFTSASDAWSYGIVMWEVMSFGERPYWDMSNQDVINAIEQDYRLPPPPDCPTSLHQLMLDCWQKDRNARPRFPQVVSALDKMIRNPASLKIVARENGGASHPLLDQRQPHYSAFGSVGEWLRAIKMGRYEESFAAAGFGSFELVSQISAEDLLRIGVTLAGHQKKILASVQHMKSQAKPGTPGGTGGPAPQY
Procedure: EphB4 tyrosine phosphorylation was detected in EphB4 immunoprecipitates by immunoblotting with anti-phosphotyrosine antibodies (PTyr). […] Cells were also stimulated with 1 μg/ml ephrin-B2 Fc or human Fc as positive and negative controls, respectively.

[3] = Half-life of TNYL-RAW Fc in HEK293 cell culture medium; assay type: in vitro ADME; conditions: purified from medium in which HEK293 cells were grown for 4 days

EphB3, sequence (P54753 34-998): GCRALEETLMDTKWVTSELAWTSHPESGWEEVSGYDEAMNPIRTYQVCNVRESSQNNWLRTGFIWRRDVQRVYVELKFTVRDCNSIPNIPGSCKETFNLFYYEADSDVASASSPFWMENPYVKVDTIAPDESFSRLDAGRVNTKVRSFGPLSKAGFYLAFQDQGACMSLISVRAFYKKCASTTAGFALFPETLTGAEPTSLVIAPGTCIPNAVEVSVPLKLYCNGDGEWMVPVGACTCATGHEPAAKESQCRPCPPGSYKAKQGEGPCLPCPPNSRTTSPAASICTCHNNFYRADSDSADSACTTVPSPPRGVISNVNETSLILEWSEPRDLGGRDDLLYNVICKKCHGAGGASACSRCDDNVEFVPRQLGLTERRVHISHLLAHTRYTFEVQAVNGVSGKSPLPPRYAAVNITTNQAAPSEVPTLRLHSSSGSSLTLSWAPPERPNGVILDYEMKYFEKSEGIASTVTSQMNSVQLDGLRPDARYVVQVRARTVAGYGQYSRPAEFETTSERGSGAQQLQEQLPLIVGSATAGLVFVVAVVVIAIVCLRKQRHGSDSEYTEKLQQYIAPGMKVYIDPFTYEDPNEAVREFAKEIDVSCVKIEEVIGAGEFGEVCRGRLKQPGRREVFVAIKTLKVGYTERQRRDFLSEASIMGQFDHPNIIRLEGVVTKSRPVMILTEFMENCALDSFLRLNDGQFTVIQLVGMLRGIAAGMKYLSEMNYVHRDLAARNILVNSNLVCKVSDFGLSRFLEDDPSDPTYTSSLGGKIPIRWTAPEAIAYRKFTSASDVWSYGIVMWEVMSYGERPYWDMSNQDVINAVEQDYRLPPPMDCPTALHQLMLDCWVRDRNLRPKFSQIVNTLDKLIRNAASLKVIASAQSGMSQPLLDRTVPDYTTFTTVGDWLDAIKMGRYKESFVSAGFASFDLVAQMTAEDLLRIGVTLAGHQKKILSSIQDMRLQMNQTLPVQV
EphB2, sequence (P29323 19-1055): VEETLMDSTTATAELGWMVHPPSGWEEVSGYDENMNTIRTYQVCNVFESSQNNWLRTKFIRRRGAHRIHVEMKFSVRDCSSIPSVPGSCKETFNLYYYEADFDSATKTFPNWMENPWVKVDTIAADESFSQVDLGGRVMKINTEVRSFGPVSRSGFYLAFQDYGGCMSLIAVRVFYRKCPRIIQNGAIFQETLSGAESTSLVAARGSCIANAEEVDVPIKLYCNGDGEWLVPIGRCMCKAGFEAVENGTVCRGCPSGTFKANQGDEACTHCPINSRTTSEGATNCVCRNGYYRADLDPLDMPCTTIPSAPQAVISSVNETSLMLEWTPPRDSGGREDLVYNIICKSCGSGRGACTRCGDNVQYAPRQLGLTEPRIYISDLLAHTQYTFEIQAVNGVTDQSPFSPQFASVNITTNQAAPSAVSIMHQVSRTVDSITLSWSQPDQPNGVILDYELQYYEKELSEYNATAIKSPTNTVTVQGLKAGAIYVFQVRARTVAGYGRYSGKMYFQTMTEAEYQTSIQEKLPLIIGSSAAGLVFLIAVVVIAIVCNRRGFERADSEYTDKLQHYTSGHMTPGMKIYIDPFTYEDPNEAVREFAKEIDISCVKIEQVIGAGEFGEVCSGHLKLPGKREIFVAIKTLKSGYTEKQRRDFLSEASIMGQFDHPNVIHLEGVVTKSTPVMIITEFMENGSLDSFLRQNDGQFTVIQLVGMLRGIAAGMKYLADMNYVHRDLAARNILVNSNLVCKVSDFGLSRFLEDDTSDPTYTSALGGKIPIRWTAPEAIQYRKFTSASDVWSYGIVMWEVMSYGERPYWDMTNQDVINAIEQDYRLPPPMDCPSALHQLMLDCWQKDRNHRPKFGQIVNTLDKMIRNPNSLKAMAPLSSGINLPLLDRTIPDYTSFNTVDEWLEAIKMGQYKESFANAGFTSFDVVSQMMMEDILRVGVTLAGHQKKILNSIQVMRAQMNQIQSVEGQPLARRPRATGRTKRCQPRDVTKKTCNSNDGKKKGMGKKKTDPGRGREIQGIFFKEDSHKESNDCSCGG

26 (LPHGPVAAWDA; EphB4-binding peptide) [compound 26]
EphB Receptor Specificity (% Binding) B1 (EphB1): 2%
EphB Receptor Specificity (% Binding) B2 (EphB2): 15%
EphB Receptor Specificity (% Binding) B3 (EphB3): 2%
EphB Receptor Specificity (% Binding) B4 (EphB4 [1]): 100%
EphB Receptor Specificity (% Binding) B6 (EphB6): 4%

LFSPNGPIARAW [L-RAW]
IC50 (murine EphB4 ectodomain): > 10 µM

TNYL-RAW Fc fusion protein: TNYL-RAW peptide, GSGSK linker and human Fc of IgG1; two fusion proteins dimerize via the Fc domain (TNYLFSPNGPIARAWGSGSK-{human IgG1 Fc}; also: dimerizes via the Fc domain)
binding to EphB4 AP (murine EphB4): able to bind EphB4 AP with substantial affinity
EphB4 tyrosine phosphorylation (EphB4 [2]): did not stimulate EphB4 tyrosine phosphorylation
half-life [3]: appears to be longer than that of the synthetic peptide without Fc

— patent publication US20100150834A1, “HIGH AFFINITY EPHB RECEPTOR BINDING COMPOUNDS AND METHODS OF USE THEREOF” (priority 2006, published 2010)
